Our source for the Kd values is patent US20200200750A1 (E AND S HEALTHCARE, published 2020).

This experiment addresses T1, human thioredoxin-1 (Trx1) protein (human, UniProt P10599 1-105).
T1 construct: also called naked Trx1; antigen
T1 sequence (looked up): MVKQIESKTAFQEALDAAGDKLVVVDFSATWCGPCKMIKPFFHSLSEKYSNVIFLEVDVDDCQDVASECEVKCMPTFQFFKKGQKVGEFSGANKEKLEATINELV
In words: ELISA on coated Trx1 (100 ng/well), antibody diluted 1/5 from 0.1 µM, fit with Prism.

B1: monoclonal antibody B266-1 (antibody, V domains shown)
VH: EVQLQQSGAELVKPGASVKLSCTASGFNIKDTFMHWVKQRPEQGLEWIGRIDPANGNTKYDPKFQGKATITADTSSNTAYLQLSSLTSEDTAVYYCALLQYSAMDYWGQGTSVTVSS
VL: QIVLTQSPAIMSASPGEKVTMTCSASSRISYMYWYQQKPGTSPKRWIYDTSKLASGVPARFSGSGSGTSYSLTISTMEAEDAATYYCHQRSSYPTFGAGTKLELKS
A word on the Kd: it is a measure of binding affinity in units of concentration. High values mean weaker binding, low ones tighter binding. Molecule B1 showed a Kd of 0.011 nM.
